From patent US8357523B2, “Beta-glucosidase variant enzymes and related polynucleotides” (Codexis, Inc., priority 2009, dated 2013)
Changes are numbered by the printed parent chain.

B1: 222 (protein)
chain: STAITQEGAAPAAILHPEKWPRPATQRLIDPAVEKRVDALLKQLSVEEKVGQVIQGDIGTITPEDLRKYPLGSILAGGDSGPNGDDRAPPKEWLDLADAFYRVSLEKRPGHTPIPVLFGIDAVHGHGNIGSATIFPHNIALGMTRDPELLRRIGEVTAEEMAATGIDWTFAPALSVVRDDRWGRTYEGFSEDPEIVASYSAAIVEGVQGKYGSKDFMAPGRIVASAKHFLADGGTDQGRDQGDARISEDELIRIHNAGYPPAIDAGVLTVMASFSSWQGIKHHGHKQLLTDVLKGQMGFNGFIVGDWNAHDQVPGCTKFNCPTSLIAGLDMYMAADSWKQLYENTLAQVKDGTIPMARLDDAVRRILRVKVLAGLFEKPAPKDRPGLPGLETLGSPEHRAVGREAVRKSLVLLKNDKGTLPLSPKARVLVAGDGADNIGKQSGGWTISWQGTGNRNDEFPGATSILGGIRDAVADAGGSVEFDVAGQYKTKPDVAIVVFGEEPYAEFQGDVETLEYQPDQKQDLALLKKLKDQGIPVVAVFLSGRPMWVNPELNASDAFVAAWLPGTEGGGVADVLFTDKAGKVQHDFAGKLSYSWPRTAAQTTVNRGDADYNPLFAYGYGLTYKDKSKVGTLPEESGVP
B2: 428 (protein)
chain: SAAITQEGAAPAAMLHPEKWPRPATQRLIDPAVEKRVDALLKQLSVEEKVGQVIQGDIGTITPEDLRKYPLGSILAGGDSGPNGDDRAPPKEWLDLADAFYRVSLEKRPGHTPIPVLFGIDAVHGHNNIGSATIFPHNIALGMTRDPELLRRIGEVTAEEMAATGIDWTFAPALSVPRDDRWGRTYEGFSEDPEIVASYSAAIVEGFQGKYGSKDFMAPGRAVACAKHFLADGGTDQGRDQGDARISEDELIRIHNAGYPPAIDAGVLTVMASFSSWQGIKHHGHKQLLTDVLKGQMGFNGFIVGDWNAHDQVPGCTKFNCPTSLIAGLDMYMAADSWKQLYENTLAQVKDGTIPMARLDDAVRRILRVKVLAGLFEKPAPKDRPGLPGLETLGSPEHRTVGREAVRKSLVLLKNDKGTLPLSPKARVLVAGDGADNIGKQSGGWTISWQGTGNRNDEFPGATSILGGIRDAVADAGGSVEFDVAGQYKTKPDVAIVVFGEEPYAEFQGDVETLEYQPDQKQDLTLLKKLKDQGIPVVAVFLSGRPMWVNPELNASDAFVAAWLPGTEGGGVADVLFTDKAGKVQHDFAGKLSYSWPRTAAQTTVNRGDADYNPLFAYGYGLTYKDKSKVGTLPEESGVPAEARQNAGIYFRAGALRLPGRFL
modifications: truncated; signal peptide F-10T
B3: 431 (protein)
chain: B2 chain with A13P, P109D, T400A, Q508R, T525S
modifications: truncated; signal peptide F-10T
B4: 429 (protein)
chain: B2 chain with A13P, P147T, P177V, I203Y, T400A, Q508R, H586Y
modifications: truncated; signal peptide F-10T
B5: 434 (protein)
chain: B2 chain with A13P, P177V, I203Y, E502N, Q508R
modifications: truncated; signal peptide F-10T
B6: 430 (protein)
chain: B2 chain with P109D, T400A, Q508R
modifications: truncated; signal peptide F-10T
B7: 433 (protein)
chain: B2 chain with A3R, T400A, Q508R
modifications: truncated; signal peptide F-10T
B8: 432 (protein)
chain: B2 chain with A3R, P147T, I203Y, T400A, E502N, Q508R, H586Y
modifications: truncated; signal peptide F-10T, I-14V

Experiment: High throughput cellobiose assay: fold improvement in cellobiase activity of CelA variants over a control enzyme (Tables 2A-2D, 3, 5, 6, 7)
Format: biochemical
Details: 3.3 g/l cellobiose; for Fold Improvement over Control Variant: 65° C. and pH 5 (incubation overnight), relative to Control #5, Variant No. 366 (SEQ ID NO: 9)

| Molecule | Fold improvement over Control Variant No. 94 from Table 2B (55° C. and pH 5.3 (incubation overnight)) | Fold Improvement over Control Variant |
| --- | --- | --- |
| B1 | ++++ (++++ = 1.1 to 1.5 fold improvement over Control No. 3, Variant No. 94) |  |
| B2 |  | ++ (++ = 1.1 to 2.0 fold improvement over control Variant No. 366) |
| B3 |  | ++ (++ = 1.1 to 2.0 fold improvement over control Variant No. 366) |
| B4 |  | ++ (++ = 1.1 to 2.0 fold improvement over control Variant No. 366) |
| B5 |  | ++ (++ = 1.1 to 2.0 fold improvement over control Variant No. 366) |
| B6 |  | ++ (++ = 1.1 to 2.0 fold improvement over control Variant No. 366) |
| B7 |  | ++ (++ = 1.1 to 2.0 fold improvement over control Variant No. 366) |
| B8 |  | ++ (++ = 1.1 to 2.0 fold improvement over control Variant No. 366) |
